Data published in patent US6602687B1, “DNA encoding human ciliary neurotrophic factor and method for producing the protein encoded thereby” (Regeneron Pharmaceuticals, Inc., priority 1989, dated 2003).

B1: IFNc: IFNc (rat, rec.) (protein, UniProt P01581 23-156, looked up)
Interferon gamma: QGTLIESLESLKNYFNSSSMDAMEGKSLLLDIWRNWQKDGNTKILESQIISFYLRLFEVLKDNQAISNNISVIESHLITNFFSNSKAKKDAFMSIAKFEVNNPQIQHKAVNELIRVIHQLSPESSLRKRKRSRC
B2: NT-3: neurotrophic molecule of the NGF-BDNF gene family, produced by transfected Cos-cells (protein, UniProt P20783 139-257, looked up)
Neurotrophin-3: YAEHKSHRGEYSVCDSESLWVTDKSSAIDIRGHQVTVLGEIKTGNSPVKQYFYETRCKEARPVKNGCRGIDDKHWNSQCKTSQTYVRALTSENNKLVGWRWIRIDTSCVCALSRKIGRT
B3: bNGF: bNGF (mouse) (protein, UniProt P01139 122-241, looked up)
Beta-nerve growth factor: SSTHPVFHMGEFSVCDSVSVWVGDKTTATDIKGKEVTVLAEVNINNSVFRQYFFETKCRASNPVESGCRGIDSKHWNSYCTTTHTFVKALTTDEKQAAWRFIRIDTACVCVLSRKATRRG
modifications: Beta-nerve growth factor
B4: EGF: EGF (mouse) (protein, UniProt P01132 29-1217, looked up)
Pro-epidermal growth factor: WQTGNCQPGPLERSERSGTCAGPAPFLVFSQGKSISRIDPDGTNHQQLVVDAGISADMDIHYKKERLYWVDVERQVLLRVFLNGTGLEKVCNVERKVSGLAIDWIDDEVLWVDQQNGVITVTDMTGKNSRVLLSSLKHPSNIAVDPIERLMFWSSEVTGSLHRAHLKGVDVKTLLETGGISVLTLDVLDKRLFWVQDSGEGSHAYIHSCDYEGGSVRLIRHQARHSLSSMAFFGDRIFYSVLKSKAIWIANKHTGKDTVRINLHPSFVTPGKLMVVHPRAQPRTEDAAKDPDPELLKQRGRPCRFGLCERDPKSHSSACAEGYTLSRDRKYCEDVNECATQNHGCTLGCENTPGSYHCTCPTGFVLLPDGKQCHELVSCPGNVSKCSHGCVLTSDGPRCICPAGSVLGRDGKTCTGCSSPDNGGCSQICLPLRPGSWECDCFPGYDLQSDRKSCAASGPQPLLLFANSQDIRHMHFDGTDYKVLLSRQMGMVFALDYDPVESKIYFAQTALKWIERANMDGSQRERLITEGVDTLEGLALDWIGRRIYWTDSGKSVVGGSDLSGKHHRIIIQERISRPRGIAVHPRARRLFWTDVGMSPRIESASLQGSDRVLIASSNLLEPSGITIDYLTDTLYWCDTKRSVIEMANLDGSKRRRLIQNDVGHPFSLAVFEDHLWVSDWAIPSVIRVNKRTGQNRVRLQGSMLKPSSLVVVHPLAKPGADPCLYRNGGCEHICQESLGTARCLCREGFVKAWDGKMCLPQDYPILSGENADLSKEVTSLSNSTQAEVPDDDGTESSTLVAEIMVSGMNYEDDCGPGGCGSHARCVSDGETAECQCLKGFARDGNLCSDIDECVLARSDCPSTSSRCINTEGGYVCRCSEGYEGDGISCFDIDECQRGAHNCGENAACTNTEGGYNCTCAGRPSSPGLSCPDSTAPSLLGEDGHHLDRNSYPGCPSSYDGYCLNGGVCMHIESLDSYTCNCVIGYSGDRCQTRDLRWWELRHAGYGQKHDIMVVAVCMVALVLLLVLGMWGTYYYRTRKQLSNPPKNPCDEPSGSVSSSGPNSSSGAAVASCPQPWFVVLEKHQDPKNGSLPADGTNGAVVDAGLSPSLQLGSVHLTSWRQKPHIDGMGTGQSCWIPPSSDRGPQEIEGNSHLPSYRPVGPEKLHSLQSANGSCHERAPDLPRQTEPVQ
modifications: Pro-epidermal growth factor
B5: IL-6: IL-6 (mouse, rec.) (protein, UniProt P08505 25-211, looked up)
Interleukin-6: FPTSQVRRGDFTEDTTPNRPVYTTSQVGGLITHVLWEIVEMRKELCNGNSDCMNNDDALAENNLKLPEIQRNDGCYQTGYNQEICLLKISSGLLEYHSYLEYMKNNLKDNKKDKARVLQRDTETLIHIFNQEVKDLHKIVLPTPISNALLTDKLESQKEWLRTKTIQFILKSLEEFLKVTLRSTRQT

test system: chick embryonic spinal motorneurons; assay: Survival of chick embryonic spinal motorneurons in culture; format: cell-based; set-up: key to Survival: −: not significantly different from control (survival: 8.3 ± 3.8%, mean ± SD, n = 18); ±: about 15-20% (statistically significant from each blank control, p < 0.01); + +: about 35-55%; + ++: about 55-75%; details: after 3 days in culture; one concentration per molecule, Table VI; CNTF rat, rec.
Description: Motorneuron columns were dissected under a stereomicroscope from the lumbar part of the spinal cord of chick embryos on the 6th day of embryonic development and stored in cold calcium and magnesium-free Hanks balanced salt solution supplemented with glucose (4 g/l) (HBSS). The tissues were washed with HBSS and treated with 0.03% trypsin in HBSS at 37° C. for 20 min with gentle shaking, rinsed with cold HBSS and triturated mildly in 3 steps of 8-passage agitation in 1 ml of cold 0.1% soybean trypsin inhibitor (Sigma) in HBSS through a fire-polished siliconized Pasteur pipette. Each supernatant cell suspension was filtered through 50 μm-Nylon mesh, pooled and layered onto 4 ml of cold 6.8% metrizamide (Fluka) in HBSS-25 mM HEPES (pH7.4) in a 12 ml-siliconized conical glass tube. The tube was centrifuged at 400 g for 15 min at 4° C. and the intermediate layer (0.5 ml) was collected into another siliconized tube containing 6.5 ml of cold culture medium (a mixture of glucose (4 g/l)-supplemented Leibovitz's L-15 medium (Gibco), 0.15 M sodium bicarbonate, heat-inactivated and filtered horse serum and penicillin G (10^5 units/ml) at the ratio of 75:15:10:0.1, freshly prepared and buffered with 5% CO2.) After centrifugation at 100×g for 7 min at 4° C., the supernatant was removed and the cells were gently resuspended in culture medium and plated in Greiner 4-well culture dishes (well diameter, 10 mm; C. A. Greiner und Sohne GmbH, Nurtingen, West Germany) at 1000-2000 cells/well. The dishes had been precoated with poly-DL-ornithine (Sigma, 0.5 mg in 0.15 M sodium borate buffer (pH 8.3) overnight at 4° C., rinsed twice with phosphate-buffered saline (PBS) and subsequently coated with laminin (Gibco; 10 μg/ml in the serum-depleted culture medium) and placed in a 5% CO2-incubator until cell plating (5-6 hrs). Cells were incubated at 37° C. in a humidified 5% CO2- and 95% air-incubator. Samples were added one hr after plating and the culture medium changed after 24 hrs and 72 hrs. The initial cell numbers were counted 3 hrs after plating.
In some experiments motor neurons were retrogradely labeled with a fluorescent dye in vivo before cell preparation (U. Dohrman et al., 1986, Dev. Biol. 118:209-221) to identify the motor neuron cell population. A small hole was made in the shell of eggs which had been incubated for 5 days. Small pieces of rhodamine isothiocyanate crystals (Sigma) were inserted at two or three places into each hind limb thigh and the egg hole was sealed with a cellophane tape. The eggs were incubated for another 24 hrs. Some of the operated embryos were then processed for frozen sections after formaldehyde fixation. […] The other embryos were used for cell preparation using the method described above (18.1.1). After 5 hrs in culture cells were rinsed with warm HBSS, fixed with 4% formaldehyde in PBS at room temperature for 20 min, rinsed with PBS and then mounted in glycerol-PBS (1:1) with glass coverslips. Of the total cells approximately 83% were labeled and identified as motorneurons (FIG. 42.) Most of these labeled motorneurons were large cells and the rest were intermediate-size cells. No small cells were labeled. On the other hand, in experiments in which cells were not labeled with a fluorescent dye about 70% of the total cells were large phase-bright cells with round cell somas, about 20% were intermediate-size neurons (most of them may be motorneurons) and about 10% were small immature neurons (they have neuron-like processes with growth cones but have phase-dark semi-flat cell somas). Non-neuronal cells were either not present or accounted for less than 2%. Taken together, one may conclude that at least 83% of the cells are motorneurons while the remainder consists of non-labeled motorneurons, a small number of unidentified intermediate-size neurons and about 10% immature small neurons. […]

Q: Which Survival does the source give for B1 here?
A: −

Q: Which Survival does the source give for B2 here?
A: −

Q: With B3 as the molecule, how does the Survival read?
A: −

Q: With B4 as the molecule, how does the Survival read?
A: −

Q: For B5, which Survival is on record?
A: −

same assay, conditions: supramaximal concentrations; NT-3 produced by transfected Cos-cells

Q: For B1, which “survival effect on motoneurons” value is on record?
A: no discernable effect

Q: Which “survival effect on motoneurons” value does the source give for B2 here?
A: did not appear to have a survival effect

Q: With B3 as the molecule, how does the “survival effect on motoneurons” value read?
A: no discernable effect

Q: For B4, which “survival effect on motoneurons” value is on record?
A: no discernable effect

Q: How did the “survival effect on motoneurons” value turn out when B5 was run?
A: no discernable effect
